Source: the supplement of paper PMC5998384

Columns and labels:
HeLa Kyoto [1] = experiment: solubility in G1/S (NP-40 vs SDS abundance) (log2 ratio); higher = more soluble; settings: cell cycle stage: G1/S
HeLa Kyoto [2] = experiment: melting temperature (median over replicates), in situ; higher = more thermally stable
HeLa Kyoto [3] = experiment: solubility change mitosis vs G1/S (difference of NP-40 vs SDS log2 ratios) (log2 ratio difference); higher = more soluble in mitosis
HeLa Kyoto [4] = experiment: thermal stability score vs G1/S (z-score of summed log2 fold changes over temperatures); higher = more thermally stable than in G1/S
[5] = cell cycle stage: early G1 (4.5 h after nocodazole release)
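Throughout, for melting temperature (median over replicates), in situ: HeLa Kyoto cells synchronized by double thymidine or nocodazole block, proteins quantified by TMT10plex mass spectrometry, three independent biological replicates.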
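Throughout, for solubility change mitosis vs G1/S (difference of NP-40 vs SDS log2 ratios): synchronized HeLa Kyoto cells (double thymidine block for G1/S, nocodazole release for mitosis), protein amounts in NP-40 versus SDS lysates quantified by mass spectrometry, three biological replicates.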
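Throughout, for solubility in G1/S (NP-40 vs SDS abundance): HeLa Kyoto cells arrested at G1/S by double thymidine block, proteins quantified by TMT10plex mass spectrometry in mild NP-40 versus SDS extracts, three biological replicates.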
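Throughout, for thermal stability score vs G1/S (z-score of summed log2 fold changes over temperatures): synchronized HeLa Kyoto cells, proteins quantified by TMT10plex mass spectrometry, three biological replicates, mitosis taken 0.5 h after nocodazole release, G1/S directly after double thymidine block.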

Sequence of RNGTT (chain, as listed by the source): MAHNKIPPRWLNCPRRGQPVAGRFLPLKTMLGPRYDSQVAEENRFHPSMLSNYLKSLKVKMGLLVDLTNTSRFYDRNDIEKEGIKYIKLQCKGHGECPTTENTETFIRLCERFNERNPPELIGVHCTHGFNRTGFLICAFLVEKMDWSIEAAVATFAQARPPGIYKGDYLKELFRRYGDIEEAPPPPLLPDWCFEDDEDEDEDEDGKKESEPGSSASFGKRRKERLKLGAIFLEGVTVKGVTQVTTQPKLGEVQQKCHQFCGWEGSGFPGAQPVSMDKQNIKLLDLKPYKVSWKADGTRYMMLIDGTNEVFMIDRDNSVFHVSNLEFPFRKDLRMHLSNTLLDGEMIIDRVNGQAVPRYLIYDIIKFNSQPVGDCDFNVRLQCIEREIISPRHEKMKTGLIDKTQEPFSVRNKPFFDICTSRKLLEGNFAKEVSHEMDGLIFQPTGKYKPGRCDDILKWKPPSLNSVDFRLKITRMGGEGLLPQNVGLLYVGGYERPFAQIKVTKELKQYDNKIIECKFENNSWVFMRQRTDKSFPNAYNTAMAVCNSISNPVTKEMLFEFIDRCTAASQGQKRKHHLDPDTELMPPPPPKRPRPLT

Substance | solubility in G1/S (log2) (HeLa Kyoto [1]) | melting temperature (HeLa Kyoto [2]; cell cycle stage: G1/S) [°C] | melting temperature (HeLa Kyoto [2]; cell cycle stage: mitosis) [°C] | solubility change mitosis (log2) (HeLa Kyoto [3]) | thermal stability score (HeLa Kyoto [4]; [5]) | thermal stability score (HeLa Kyoto [4]; cell cycle stage: mitosis)
MSNMEKHLFNLKFAAKELSRSAKKCDKEEKAEKAKIKKAIQKGNMEVARIHAENAIRQKNQAVNFLRMSARVDAVAARVQTAVTMGKVTKSMAGVVKSMDATLKTMNLEKISALMDKFEHQFETLDVQTQQMEDTMSSTTTLTTPQNQVDMLLQEMADEAGLDLNMELPQGQTGSVGTSVASAEQDELSQRLARLRDQV [CHMP1B] | 0.304 | 51.8 | 52.2 | 0.158 | 0.0467 | -0.997
KDM3B | 0.00792 | 48.6 | 49.8 | -0.108 | 0.937 | 2.62
MSDFDSNPFADPDLNNPFKDPSVTQVTRNVPPGLDEYNPFSDSRTPPPGGVKMPNVPNTQPAIMKPTEEHPAYTQIAKEHALAQAELLKRQEELERKAAELDRREREMQNLSQHGRKNNWPPLPSNFPVGPCFYQDFSVDIPVEFQKTVKLMYYLWMFHAVTLFLNIFGCLAWFCVDSARAVDFGLSILWFLLFTPCSFVCWYRPLYGAFRSDSSFRFFVFFFVYICQFAVHVLQAAGFHNWGNCGWISSLTGLNQNIPVGIMMIIIAALFTASAVISLVMFKKVHGLYRTTGASFEKAQQEFATGVMSNKTVQTAAANAASTAASSAAQNAFKGNQI [SCAMP1] | 0.0609 | 55.8 | 56 | -0.114 | -0.608 | -0.121
GPATCH8 | -0.561 | 47.8 | 49.6 | 0.335 | 0.236 | 4.11
MGRRSTSSTKSGKFMNPTDQARKEARKRELKKNKKQRMMVRAAVLKMKDPKQIIRDMEKLDEMEFNPVQQPQLNEKVLKDKRKKLRETFERILRLYEKENPDIYKELRKLEVEYEQKRAQLSQYFDAVKNAQHVEVESIPLPDMPHAPSNILIQDIPLPGAQPPSILKKTSAYGPPTRAVSILPLLGHGVPRLPPGRKPPGPPPGPPPPQVVQMYGRKVGFALDLPPRRRDEDMLYSPELAQRGHDDDVSSTSEDDGYPEDMDQDKHDDSTDDSDTDKSDGESDGDEFVHRDNGERDNNEEKKSGLSVRFADMPGKSRKKKKNMKELTPLQAMMLRMAGQEIPEEGREVEEFSEDDDEDDSDDSEAEKQSQKQHKEESHSDGTSTASSQQQAPPQSVPPSQIQAPPMPGPPPLGPPPAPPLRPPGPPTGLPPGPPPGAPPFLRPPGMPGLRGPLPRLLPPGPPPGRPPGPPPGPPPGLPPGPPPRGPPPRLPPPAPPGIPPPRPGMMRPPLVPPLGPAPPGLFPPAPLPNPGVLSAPPNLIQRPKADDTSAATIEKKATATISAKPQITNPKAEITRFVPTALRVRRENKGATAAPQRKSEDDSAVPLAKAAPKSGPSVPVSVQTKDDVYEAFMKEMEGLL [WBP11] | 0.135 | 55.4 | 53.8 | 0.186 | -1.77 | -3.87
MYRALRLLARSRPLVRAPAAALASAPGLGGAAVPSFWPPNAARMASQNSFRIEYDTFGELKVPNDKYYGAQTVRSTMNFKIGGVTERMPTPVIKAFGILKRAAAEVNQDYGLDPKIANAIMKAADEVAEGKLNDHFPLVVWQTGSGTQTNMNVNEVISNRAIEMLGGELGSKIPVHPNDHVNKSQSSNDTFPTAMHIAAAIEVHEVLLPGLQKLHDALDAKSKEFAQIIKIGRTHTQDAVPLTLGQEFSGYVQQVKYAMTRIKAAMPRIYELAAGGTAVGTGLNTRIGFAEKVAAKVAALTGLPFVTAPNKFEALAAHDALVELSGAMNTTACSLMKIANDIRFLGSGPRSGLGELILPENEPGSSIMPGKVNPTQCEAMTMVAAQVMGNHVAVTVGGSNGHFELNVFKPMMIKNVLHSARLLGDASVSFTENCVVGIQANTERINKLMNESLMLVTALNPHIGYDKAAKIAKTAHKNGSTLKETAIELGYLTAEQFDEWVKPKDMLGPK [FH] | 0.478 | 53.5 | 53.4 | 0.0382 | 1.14 | -0.915
LSM14B | 0.0485 | 49.6 | 50 | 0.137 | 0.76 | 1.45
MAKGDPKKPKGKMSAYAFFVQTCREEHKKKNPEVPVNFAEFSKKCSERWKTMSGKEKSKFDEMAKADKVRYDREMKDYGPAKGGKKKKDPNAPKRPPSGFFLFCSEFRPKIKSTNPGISIGDVAKKLGEMWNNLNDSEKQPYITKAAKLKEKYEKDVADYKSKGKFDGAKGPAKVARKKVEEEDEEEEEEEEEEEEEEDE [HMGB3] | 0.667 | 57 | 57.3 | 0.349 | 1.34 | 0.604
MAGAEGAAGRQSELEPVVSLVDVLEEDEELENEACAVLGGSDSEKCSYSQGSVKRQALYACSTCTPEGEEPAGICLACSYECHGSHKLFELYTKRNFRCDCGNSKFKNLECKLLPDKAKVNSGNKYNDNFFGLYCICKRPYPDPEDEIPDEMIQCVVCEDWFHGRHLGAIPPESGDFQEMVCQACMKRCSFLWAYAAQLAVTKISTEDDGLVRNIDGIGDQEVIKPENGEHQDSTLKEDVPEQGKDDVREVKVEQNSEPCAGSSSESDLQTVFKNESLNAESKSGCKLQELKAKQLIKKDTATYWPLNWRSKLCTCQDCMKMYGDLDVLFLTDEYDTVLAYENKGKIAQATDRSDPLMDTLSSMNRVQQVELICEYNDLKTELKDYLKRFADEGTVVKREDIQQFFEEFQSKKRRRVDGMQYYCS [UBR7] | 0.163 | 49.9 | 50.7 | -0.0607 | -0.155 | 0.512
MMAAEAGSEEGGPVTAGAGGGGAAAGSSAYPAVCRVKIPAALPVAAAPYPGLVETGVAGTLGGGAALGSEFLGAGSVAGALGGAGLTGGGTAAGVAGAAAGVAGAAVAGPSGDMALTKLPTSLLAETLGPGGGFPPLPPPPYLPPLGAGLGTVDEGDSLDGPEYEEEEVAIPLTAPPTNQWYHGKLDRTIAEERLRQAGKSGSYLIRESDRRPGSFVLSFLSQMNVVNHFRIIAMCGDYYIGGRRFSSLSDLIGYYSHVSCLLKGEKLLYPVAPPEPVEDRRRVRAILPYTKVPDTDEISFLKGDMFIVHNELEDGWMWVTNLRTDEQGLIVEDLVEEVGREEDPHEGKIWFHGKISKQEAYNLLMTVGQVCSFLVRPSDNTPGDYSLYFRTNENIQRFKICPTPNNQFMMGGRYYNSIGDIIDHYRKEQIVEGYYLKEPVPMQDQEQVLNDTVDGKEIYNTIRRKTKDAFYKNIVKKGYLLKKGKGKRWKNLYFILEGSDAQLIYFESEKRATKPKGLIDLSVCSVYVVHDSLFGRPNCFQIVVQHFSEEHYIFYFAGETPEQAEDWMKGLQAFCNLRKSSPGTSNKRLRQVSSLVLHIEEAHKLPVKHFTNPYCNIYLNSVQVAKTHAREGQNPVWSEEFVFDDLPPDINRFEITLSNKTKKSKDPDILFMRCQLSRLQKGHATDEWFLLSSHIPLKGIEPGSLRVRARYSMEKIMPEEEYSEFKELILQKELHVVYALSHVCGQDRTLLASILLRIFLHEKLESLLLCTLNDREISMEDEATTLFRATTLASTLMEQYMKATATQFVHHALKDSILKIMESKQSCELSPSKLEKNEDVNTNLTHLLNILSELVEKIFMASEILPPTLRYIYGCLQKSVQHKWPTNTTMRTRVVSGFVFLRLICPAILNPRMFNIISDSPSPIAARTLILVAKSVQNLANLVEFGAKEPYMEGVNPFIKSNKHRMIMFLDELGNVPELPDTTEHSRTDLSRDLAALHEICVAHSDELRTLSNERGAQQHVLKKLLAITELLQQKQNQYTKTNDVR [RASA1] | -0.0958 | 49.8 | 50.1 | -0.135 | 0.554 | 0.915
MTILPKKKPPPPDADPANEPPPPGPMPPAPRRGGGVGVGGGGTGVGGGDRDRDSGVVGARPRASPPPQGPLPGPPGALHRWALAVPPGAVAGPRPQQASPPPCGGPGGPGGGPGDALGAAAAGVGAAGVVVGVGGAVGVGGCCSGPGHSKRRRQAPGVGAVGGGSPEREEVGAGYNSEDEYEAAAARIEAMDPATVEQQEHWFEKALRDKKGFIIKQMKEDGACLFRAVADQVYGDQDMHEVVRKHCMDYLMKNADYFSNYVTEDFTTYINRKRKNNCHGNHIEMQAMAEMYNRPVEVYQYSTGTSAVEPINTFHGIHQNEDEPIRVSYHRNIHYNSVVNPNKATIGVGLGLPSFKPGFAEQSLMKNAIKTSEESWIEQQMLEDKKRATDWEATNEAIEEQVARESYLQWLRDQEKQARQVRGPSQPRKASATCSSATAAASSGLEEWTSRSPRQRSSASSPEHPELHAELGMKPPSPGTVLALAKPPSPCAPGTSSQFSAGADRATSPLVSLYPALECRALIQQMSPSAFGLNDWDDDEILASVLAVSQQEYLDSMKKNKVHRDPPPDKS [OTUD5] | 0.259 | 51.6 | 52.4 | 0.178 | -1.93 | 0.592
MADKEKKKKESILDLSKYIDKTIRVKFQGGREASGILKGFDPLLNLVLDGTIEYMRDPDDQYKLTEDTRQLGLVVCRGTSVVLICPQDGMEAIPNPFIQQQDA [LSM7] | 0.0991 | 55.3 | 53.7 | 0.227 | -1.51 | -2.73
RNGTT | -0.301 | 47.7 | 48.7 | -0.0839 | 0.407 | 0.579
MAEMGSKGVTAGKIASNVQKKLTRAQEKVLQKLGKADETKDEQFEQCVQNFNKQLTEGTRLQKDLRTYLASVKAMHEASKKLNECLQEVYEPDWPGRDEANKIAENNDLLWMDYHQKLVDQALLTMDTYLGQFPDIKSRIAKRGRKLVDYDSARHHYESLQTAKKKDEAKIAKPVSLLEKAAPQWCQGKLQAHLVAQTNLLRNQAEEELIKAQKVFEEMNVDLQEELPSLWNSRVGFYVNTFQSIAGLEENFHKEMSKLNQNLNDVLVGLEKQHGSNTFTVKAQPSDNAPAKGNKSPSPPDGSPAATPEIRVNHEPEPAGGATPGATLPKSPSQLRKGPPVPPPPKHTPSKEVKQEQILSLFEDTFVPEISVTTPSQFEAPGPFSEQASLLDLDFDPLPPVTSPVKAPTPSGQSIPWDLWEPTESPAGSLPSGEPSAAEGTFAVSWPSQTAEPGPAQPAEASEVAGGTQPAAGAQEPGETAASEAASSSLPAVVVETFPATVNGTVEGGSGAGRLDLPPGFMFKVQAQHDYTATDTDELQLKAGDVVLVIPFQNPEEQDEGWLMGVKESDWNQHKELEKCRGVFPENFTERVP [BIN1] | 0.803 | 51.9 | 51.6 | -0.0586 | -1.69 | 0.531
MSTKQITCRYFMHGVCREGSQCLFSHDLANSKPSTICKYYQKGYCAYGTRCRYDHTRPSAAAGGAVGTMAHSVPSPAFHSPHPPSEVTASIVKTNSHEPGKREKRTLVLRDRNLSGMAERKTQPSMVSNPGSCSDPQPSPEMKPHSYLDAIRSGLDDVEASSSYSNEQQLCPYAAAGECRFGDACVYLHGEVCEICRLQVLHPFDPEQRKAHEKICMLTFEHEMEKAFAFQASQDKVCSICMEVILEKASASERRFGILSNCNHTYCLSCIRQWRCAKQFENPIIKSCPECRVISEFVIPSVYWVEDQNKKNELIEAFKQGMGKKACKYFEQGKGTCPFGSKCLYRHAYPDGRLAEPEKPRKQLSSQGTVRFFNSVRLWDFIENRESRHVPNNEDVDMTELGDLFMHLSGVESSEP [MKRN2] | 0.161 | 46.5 | 48.6 | -0.033 | 0.686 | 1.44
MASVAAARAVPVGSGLRGLQRTLPLVVILGATGTGKSTLALQLGQRLGGEIVSADSMQVYEGLDIITNKVSAQEQRICRHHMISFVDPLVTNYTVVDFRNRATALIEDIFARDKIPIVVGGTNYYIESLLWKVLVNTKPQEMGTEKVIDRKVELEKEDGLVLHKRLSQVDPEMAAKLHPHDKRKVARSLQVFEETGISHSEFLHRQHTEEGGGPLGGPLKFSNPCILWLHADQAVLDERLDKRVDDMLAAGLLEELRDFHRRYNQKNVSENSQDYQHGIFQSIGFKEFHEYLITEGKCTLETSNQLLKKGIEALKQVTKRYARKQNRWVKNRFLSRPGPIVPPVYGLEVSDVSKWEESVLEPALEIVQSFIQGHKPTATPIKMPYNEAENKRSYHLCDLCDRIIIGDREWAAHIKSKSHLNQLKKRRRLDSDAVNTIESQSVSPDHNKEPKEKGSPGQNDQELKCSV [TRIT1] | 0.0861 | 53.3 | 49.1 | -0.137 | -0.00673 | 0.208
